This is an account of results in the DeepSol protein solubility set.

The data set can be described thus: soluble on expression in E. coli; label from the status in PepcDB or PDB records.
On to “MQDGESNFPLLLLPENAKKHVLRTMDVDFLLSLSFCSKRTKHIVQSLKLKFEHFKMDLLGKTKLMINFRSTTILLVFNALYGDKAWKDVFRTVVSTGPPNARYYNTNFFKSFGWERKELAVEDTIYHIFDILNTNVIDVFLDCNNRNMFFFEKLSQTFRERNVRRISLGSMQNPIFNSFSYLENSLRNQFLELEGLAYLRELYRTLQEEHKILIQNFNYLNPNLPSTGKMTLNELLLINSSHITLTFNEMALNEKSLNIFLKHWINGSNKKLDYMYLSGFTQLGETSVAIEAILKRIVHKEASHDRLFKKFYDPGSNGNIGDNSSSLKHGFDIISNDGTPATASIRISEGVIYFQMKVWDQ”, for which the “soluble on expression in E. coli” value is “not soluble”. Turning to “MVPKTATSTETKTITRIIHYVDKVTNQNVKEDVVQPVTLSRTKTENKVTGVVTYGEWTTGNWDEVISGKIDKYKDPDIPTVESQEVTSDSSDKEITVRYDRLSTPEKPIPQPNPEHPSVPTPNPELPNQETPTPDKPTPEPGTPKTETPVNPDPEVPTYETGKREELPNTGTEANATLASAGIMTLLAGLGLGFFKKKEDEKLEHHHHHH”, the “soluble on expression in E. coli” value was “soluble”. “MGSDKIHHHHHHMSEKSASNNKAEFKRQSSPFREIISADHPIYKPAKGRYWLYVALPCPWAQRTLITRALKGLAPIIGCSVAHWHLDDKGWRFLEEGDGKTNERHWFDIAGGISSVNLNTSTPVANIPNNAHRLLVDGTDEPHYGYKRLSDFYFKTKPDYKGRFTVPVLWDLETCTIVNNESSDIIGIMNSAAFDEFVGEEYRQVRLVPRSLEAQITEFNSWVYDKINNGVYKAGFAECAEVYEREVTSLFQYLDKLENLLDKKYTDLEAEYGKNNKDKILDRYFAIGDTLTEADVRLYPTIVRFDVVYHQHFKCNLATIRDDYSRIHTWLKNIYWRHEAFQRTTDFTHIKLGYTRSQPRVNPIGITPLGPKPDIRPP”: the “soluble on expression in E. coli” value is “not soluble”. To “MSIVPGVVHSLYGDAKARWTINEYADLECPFCKVYTPRLKRWVDSHTDVNLVWRHLPLQMHGEAARHQARLVECAGIQGGAKAFWSAIDAIFAQSAGNGGGLPGGTLDFPDLDQARLEKCAKDMDLVDQLIKTDIDTARSNGITATPTLVIQDNQTGRSVKLEGMADETTLLSAIDWLAKDL” belongs “not soluble”. To “MKFKDLRDFVQQLEQRGELKRIQMPISPVLEMTEICDRTLRAKGPALLFENPVGFDIPVLGNLFGTPERVAMGMGAEAVTELREIGKLLAFLKEPEPPKGLKDAWSKLPIFRKVIAMAPKVVKDAPCQEIVIEGDDVDLGMLPVQTCWPGDVAPLITWGLTVTKGPNKERQNLGIYRQQVIGRNKIIMRWLSHRGGALDFRDWCVKHPGEPYPVAVALGADPATILGAVTPVPDSLSEYAFAGLLRGSRTELIKCRGSNLQVPASAEIVLEGVIHPGEMANEGPYGDHTGYYNEVDSFPVLTVERITHRIKPIYHSTYTGRPPDEPAILGVALNEVFVPILQKQFPEIVDFYLPPEGCSYRMAVVTIKKQYPGHAKRVMLGVWSFLRQFMYTKFVIVTDDDINARDWNDVIWAITTRMDPKRDTVMIDNTPIDYLDFASPVSGLGSKMGLDATNKWPGETTREWGRAIVKDEATTRRVDEIWTQLGIDLEHHHHHH” belongs “not soluble”; to “MTKERFVISRRRTGFGDCLWSLASAWSYAQRTGRTLVIDWRGSCYVEQPFSNAFPAFFEPVEDIAGVPVICDDRVNQLSFPGPFFPRWWNRPSIDCINRPDEQIFRERDELTELFQAREDSEANTIVCDACLMWRCSEEAERLIFRNIKLRSEIRARIDALYEEHFSGHSIIGVHVRHGNGEDIMEHAPYWADSELALHQVCMAIRKAKALSYPKPVKVFLCTDSAQVLDQVSGLFPDVFAVPKRFQADRAGPLHSAEMGIEGGASALIDMYLLARCATVIRFPPTSAFTRYARLLVPRIIEFDLSNPGHLTMIDNPYEHFAASHHHHHH”, “soluble”; to “MIFNVRGENLEVTPALREYVEKKVGKLERYFDTTPVADVNVRMQVLNNLHIIEVTIPMSRLLLRAEEKHSDMYAAIDLVIEKLERQIRKHKTKVNRKFRQEGSLKYMFKNDLEPMDGMREEILLEEEDDLQVVRKKRFNLKPMDTEEAILQMDMLGHNFFVFSNAISGDTNVVYRRKDGKYGLIEPELEHHHHHH”, “soluble”. To “MDKNINISVKVWRQKGPKEKGHFETYQLQNISQSASFLEMMDILNEQLIKEHKAPVVFDHDCREGICGMCSLYINGHPHGPDDSITTCQLHMRRFDDGDTITIEPWRSAGFPVIRDLMVDRSAYDKIIQSGGFVSVNTGGIPDANAIPISKKNADEAMDAAACIGCGACAAACKNGSAMLFVSAKVSQLALLPQGRIEAARRAKAMVAKMDELGFGNCTNTRACEMECPKNVSISHIARLNREYIVAKNRD” belongs “not soluble”; to “VVQAPTQVPGFLGDSVTLPCYLQVPNMEVTHVSQLTWARHGESGSMAVFHQTQGPSYSESKRLEFVAARLGAELRDASLRMFGLRVEDEGSYTCLFVTFPQGSRSVDIWLRVLAKPQNTAEVQKVQLTGEPVPMARCVSTGGRPPAQITWHSDLGGMPQTSQVPGFLSGTVTVTSLWILVPSSQVDGKQVTCKVEHESFEKPQLLTVSLTVYY”, “soluble”; to “MGSDKIHHHHHHMKCNDKLAPFEVFDHVVNKKLSFRHVTMDDVDMLHSWMHEEHVIPYWKLNIPLVDYKKHLQTFLNDDHQTLMVGAINGVPMSYWESYWVKEDIIANYYPFEEHDQGIHLLIGPQEYLGQGLIYPLLLAIMQQKFQEPDTNTIVAEPDRRNKKMIHVFKKCGFQPVKEVELPDKIGLLMKCEQNVFEKRWSDWKMNKF”, “not soluble”. Consider “MYSERPPLDPHPLSPYMAWTGYRNRDAILDVLKGVFPRDKSDVLEFAAGSGMHAHYFAQHFAHLTFHPSDSDEDLLPHIEERTRQSGLSNVARPRRLDLTQPETWPAGEKFHAIYCINVCQVAPVSIVGGIMACSSRILADGGFLFIYGPFLDYGRFASDFDEEFDRLLRSTGEEGWSLKDIAELDRAAGRHGMRLDDEIDMPSNDFALIYRRA”, for which the “soluble on expression in E. coli” value is given as “not soluble”. To “MVAIIFDMDGVLYRGNRAIPGVRELIEFLKERGIPFAFLTNNSTKTPEMYREKLLKMGIDVSSSIIITSGLATRLYMSKHLDPGKIFVIGGEGLVKEMQALGWGIVTLDEARQGSWKEVKHVVVGLDPDLTYEKLKYATLAIRNGATFIGTNPDATLPGEEGIYPGAGSIIAALKVATNVEPIIIGKPNEPMYEVVREMFPGEELWMVGDRLDTDIAFAKKFGMKAIMVLTGVSSLEDIKKSEYKPDLVLPSVYELIDYLKTL” belongs “soluble”; to “MATSFRYGHGGSYKSACAVWFDLLPALREGRICITNIHGMQPLEVIEQRLGEKFPDTARLIRISSRNPEGFELWKYFFCWAPIGAFILIDECQQIFSVNAGFKMANIHKRPFTDFEPHLPEGFSELFHSRWLTIDTSSLDNGEIDDCQRTRFDEQGRIIYPENFNNAFMEHRHYNWDIVLLTPDFAQIPKELKGVAELAKQHKGKDGIFFSNRKPRILEHDPTRTVTKPSKDDVVYNLKVPLDVHLLYASTVTGQ”, “not soluble”; to “MGHHHHHHSHMAASFAFLRDVRPYKTSWRVQVKVLHSWCQYTNMTGETLKLVLVNSQGVKIHASVKKDLVSKYVNNLPLNEWTFIETFALNHASGQFRPTGHLYKMSFVTGTQVIRCDS”, “soluble”. Turning to “MQFEKMITEGSNTASAEIDRVSTLEMCRIINDEDKTVPLAVERVLPDIAAAIDVIHAQVSGGGRLIYLGAGTSGRLGILDASECPPTYGVKPGLVVGLIAGGEYAIQHAVEGAEDSREGGVNDLKNINLTAQDVVVGIAASGRTPYVIAGLEYARQLGCRTVGISCNPGSAVSTTAEFAITPIVGAEVVTGSSRMKAGTAQKLVLNMLSTGLMIKSGKVFGNLMVDVVATNEKLHVRQVNIVKNATGCSAEQAEAALIACERNCKTAIVMVLKNLDAAEAKKRLDQHGGFIRQVLDKELEHHHHHH”, the “soluble on expression in E. coli” value is recorded as “soluble”. Turning to “MNVDVLLKNVWLYQTVTQTFVQRNVAIKNDKFYYIYEEENVNLQPQKTINAENQWMIPGLIDAHMHIESSMTTPTIFSKAVVRYGVTTVIADAHEMANVFGLEGLKAFMAAETELDIFHAIPSSVPSTTPELETTGGIIGLAEVAELLKEPKVICLGEAMNFKGISYEPDSLIRQIIDLCQKQRPTMPLEGHCPKIEDQELADFLYSGITSDHTHQFPKTLKEKIEAGVFIQFQNKSITPENIQVIVDNDFYNYASIITDDVMADDLLKGHLNENVKKAVHAGLPIEKAIYMATYTPAKRMGLHDRGEIAPGKKADFLLLNDLESFDINTVYKSGKVVFEKGEPFHYPEKIEEFPATYQQTIQCKKLTEEDLLLKVATTKETVRCNVIQKQEIGTFTERITKEIPVENGLLQWQKANCALLIVMERYGKNGNISFSLMDQPLSEKGAIATTWAHDHHNLMVMGNTIEDILLAQNELLAMQGGYLVASDQQVMATCPLPIGGILSQAPIEQLGASLQKVRQAMQALGYQNMNEIMSFSTLSLPVSPAIKVTDFGMMDTKSQRFYPLVFPEDGVLLHENTH”, the “soluble on expression in E. coli” value is “not soluble”. On to “GKVEERWTKTTDGKQMLSWVIYPVNFDANKKYPTLLFCEGGPQSPVSQFWSYRWNFQIMAANDYIIIAPNRRGLPGFGMEWLEQISGDYGGQCMKDYLSAIDDISKEPYVDTNRLGCVGASFGGFSVYWLAGHHDKRFKAFIAHDGIFNMEQQYLETEEMWFANWDMGGAYWDKNNATAQRTFANSPHRFVDKWDTPILCIHGEKDYRILASQGMSAFNAAVLRGVPAELLLYPDENHWVLKPQNGVLWQRTFFSWLDKWLK”, for which the “soluble on expression in E. coli” value was “not soluble”.

In the case of “MSEESQAFQRQLTALIGYDVTDVSNVHDDELEFTRRGLVTPRMAEVASRDPKLYAMHPWVTSKPLPEYLWKKIANNCIFIVIHRSTTSQTIKVSPDDTPGAILQSFFTKMAKKKSLMDIPESQSEQDFVLRVCGRDEYLVGETPIKNFQWVRHCLKNGEEIHVVLDTPPDPALDEVRKEEWPLVDDCTGVTGYHEQLTIHGKDHESVFTVSLWDCDRKFRVKIRGIDIPVLPRNTDLTVFVEANIQHGQQVLCQRRTSPKPFTEEVLWNVWLEFSIKIKDLPKGALLNLQIYCGKAPALSSKASAESPSSESKGKVQLLYYVNLLLIDHRFLLRRGEYVLHMWQISGKGEDQGSFNADKLTSATNPDKENSMSISILLDNYCHPIALPKHQPTPDPEGDRVRAEMPNQLRKQLEAIIATDPLNPLTAEDKELLWHFRYESLKHPKAYPKLFSSVKWGQQEIVAKTYQLLARREVWDQSALDVGLTMQLLDCNFSDENVRAIAVQKLESLEDDDVLHYLLQLVQAVKFEPYHDSALARFLLKRGLRNKRIGHFLFWFLRSEIAQSRHYQQRFAVILEAYLRGCGTAMLHDFTQQVQVIEMLQKVTLDIKSLSAEKYDVSSQVISQLKQKLENLQNSQLPESFRVPYDPGLKAGALAIEKCKVMASKKKPLWLEFKCADPTALSNETIGIIFKHGDDLRQDMLILQILRIMESIWETESLDLCLLPYGCISTGDKIGMIEIVKDATTIAKIQQSTVGNTGAFKDEVLNHWLKEKSPTEEKFQAAVERFVYSCAGYCVATFVLGIGDRHNDNIMITETGNLFHIDFGHILGNYKSFLGINKERVPFVLTPDFLFVMGTSGKKTSPHFQKFQDICVKAYLALRHHTNLLIILFSMMLMTGMPQLTSKEDIEYIRDALTVGKNEEDAKKYFLDQIEVCRDKGWTVQFNWFLHLVLGIKQGEKHSAHHHHHH”, the “soluble on expression in E. coli” value is reported as “soluble”.

Take “MISNNTRRVYRISFSFFEQYCLEHNLQSLPADPRSIISFIGHQKELLQASTGMQLSKQTLTTRIAAIRFYHIQAGFPTPTEHPQVIRVMRGLSRNHHRLVQDYDQQPLEHHHHHH”: the “soluble on expression in E. coli” value is on record as “not soluble”. For the sequence “SPCKYSRSEVVLTFFERSPLDQVLKNDNVHKIQPSFQSPVKISEIMRSNGFCLANTETIVIDHSIPNGRDQQLGVDQTEHLFENGSEFPSELEDGDDPAAYVTNLSYYHLVPFETDIWD”, the “soluble on expression in E. coli” value is given as “soluble”.
